In article doi:10.1101/2025.04.25.650662 (bioRxiv, 2025) one finds Kd data, which are given here for one molecule.

The target in assay [1] is Leucine-rich repeat containing, G protein-coupled receptor 5 (LGR5), human, on HEK293T cells (HEK293-LGR5-DeltaC) (human) (UniProt O75473). In words: whole-cell binding assay.
Assay [2] has as its target Leucine-rich repeat containing, G protein-coupled receptor 4 (LGR4), human, on HEK293T cells (human, UniProt Q9BXB1 25-951). Briefly: whole-cell binding assay.

Sequence of Leucine-rich repeat containing, G protein-coupled receptor 5 (LGR5), human, on HEK293T cells (HEK293-LGR5-DeltaC) (human) (O75473 22-907, stated change not applied): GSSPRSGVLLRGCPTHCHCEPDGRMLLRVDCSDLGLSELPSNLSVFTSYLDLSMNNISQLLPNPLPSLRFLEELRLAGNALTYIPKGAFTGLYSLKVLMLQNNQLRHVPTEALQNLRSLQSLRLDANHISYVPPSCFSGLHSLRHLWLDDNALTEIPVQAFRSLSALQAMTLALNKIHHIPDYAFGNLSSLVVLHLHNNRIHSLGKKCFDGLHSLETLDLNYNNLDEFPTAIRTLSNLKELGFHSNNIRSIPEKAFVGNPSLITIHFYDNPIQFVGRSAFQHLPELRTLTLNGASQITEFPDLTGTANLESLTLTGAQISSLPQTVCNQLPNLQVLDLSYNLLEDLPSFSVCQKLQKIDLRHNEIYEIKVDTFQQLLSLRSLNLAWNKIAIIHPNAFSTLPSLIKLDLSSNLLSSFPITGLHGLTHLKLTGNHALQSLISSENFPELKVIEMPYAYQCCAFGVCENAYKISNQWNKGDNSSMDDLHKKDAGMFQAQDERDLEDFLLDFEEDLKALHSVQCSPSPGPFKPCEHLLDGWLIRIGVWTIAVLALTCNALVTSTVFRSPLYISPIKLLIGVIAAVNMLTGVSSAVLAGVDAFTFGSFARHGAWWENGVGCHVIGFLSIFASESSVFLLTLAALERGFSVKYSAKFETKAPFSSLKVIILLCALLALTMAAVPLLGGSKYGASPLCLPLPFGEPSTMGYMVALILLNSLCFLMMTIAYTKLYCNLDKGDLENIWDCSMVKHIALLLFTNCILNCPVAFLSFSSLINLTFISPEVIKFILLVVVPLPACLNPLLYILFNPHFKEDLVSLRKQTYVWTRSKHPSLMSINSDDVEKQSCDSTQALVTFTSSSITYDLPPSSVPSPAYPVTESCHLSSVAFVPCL

B1: R232, RSPO2 furin domain M68T/Q70R double mutant fused to human IgG1-Fc (Fc fusion)
chain: CKGCLSCSKDNGCSRCQQKLFFFLRREGTRRYGECLHSCPSGYYGHRAPDMNRCARCRIENCDSCFSKDFCTKCKVGFYLHRGRCFDECPDGFAPLEETMEC
What is called Kd is the concentration at which binding is half-saturated. Higher therefore signals weaker binding. B1: the Kd is 0.3 nM in assay [1] and 0.2 nM in assay [2].
